Source: the DeepSol protein solubility set

Test: soluble on expression in E. coli; label from the status in PepcDB or PDB records

| Sequence | soluble on expression in E. coli |
| --- | --- |
| MSLNEHKHNYNMKINCLLALALSASSLAAQDAVIRVDAGKVENKITPYLYGACMEDVNHEIYGGLYDQKIFGESFEEPVSMDNFIGFTRCEGVWKLQDGQLSVQAHPGAKLVYDDTQLSDGTVGVDLKFTNGTSSSNNAGLLLRVGEYGGGADNFDGYEVSLFADGKRLLLGKHLHNWQELKTTPVDVDPMQWNRMEVKLDGDELVILLNDCEVLRFEDRDTGLRNGKVAFRNWGADVSYRSLTIGSNTPVKLLTKATPQVSGMWDAFADLTAAAVYKQIADKPFHGRYAQEIEYLVGTGKVGIANRSLNRWGISVRQGEKKTGSLYLKGKAEVRVALQSVDGEKEYAVQCIRANAGDWKKYTFELTPDKTDENARLAIYLEEKGRIQVDMVTLMNGADRQFCGLPLRNDIGQAMVDQGLRFLRYGGTMVNAPEYRFKKMIGDRAERPPYKGHWYTYSTNGFGIEDFLHFCEKAGFMPAYAVNVEESAQDMADMIEYLNGSVDTKWGKKRAENGHPEPYGLKYLEIGNEEVIWGDIEADYQHYIDRFNDIYEAVHAKDPEVQFIHSAWWRPESPNMEKVFKALDGKAAYWDYHPWTDDLGSHVNIDRELTDMKAKFLKWNPKTSMRCAIFEENGNLHNVQRAIVHATVQNVVRRHGDFILTTCAANALQPYLQNDNGWDQGQIFFTSGQVWGMPTFYAQQMSSAHHHPLRLWSETVGELDMTATTNEARDEVILHVVNTSSEVRETQVSLSGFIPKGNMEIYTLSGELNDENLPDTPTWILPKATWKQAPGSDFTYSFPGYSYTIVVLKEGHHHHHH | soluble |
| MGSSHHHHHHSSGRENLYFQGMTKSKNNPGRGNTIRESNTMKVMEEIREKIRKAIKEGVSLREIEEIILQEAMMEEREAYLEVEDDHKNGTYFRYLGTGDGVLRLRVPRTRKGGFRPKILPEKYERTSPDYEDFLQQLVLSGMTPSQVKAVLAAKGIPYSEIVMNRVAERISNKLKEYKSRELPHDLLALYIDVKIVKVRISESIMERAIYIAIGVDLEGNKFVLDYEVRDREDLDGWKSFLSGLVSRGVSRVDVIVSDDFSGLDRVVSTLFPSSQHQLCITHMVRNLMRVLPDKEKEELMIRVRDLKSSRNVEEGRKAILSLSQLVQPFSPARAKRLLDAADKYCSFLNFPREIRHYLYTNNTSESFNLTLARFEEELGGYFPSLRSLEVYLYVSIHESNSRWKFRPMSVIRHYSYHLKQLHASRFQVSLDEDF | soluble |
| MTISNSNLLKPFITGTELPPFKEDVFSKTEEQFKKSTYGKSLFISGNENLVNISAEKIDEIKNSKNFFSNIVNIIILLIKHPDKILPILHGCPVESIEVIKNAKRTGQWSYEMTDKNGQSIEVSYIFTDTIDDKSDGKLCLKICNSCNQNDSSTHEYKIDHQQLKNHIRQLEEWALLEKFYDNNAYYSKRTKQLEKKIADAGFITRKVKAENFNVKEFKDDIASMLCEQPPMRTHQISSSGYVSADKLHKLYKTNLEDAQRDLKTTPVDIDGVSLKSITREKIAEEIAKKTAEIIAKQNAKSIEEKNIEKNKKQTNSEDNFVLKFSPEEINEMLLDYSDEEQKKLRPFFTSDHIYCLFDAFSQGLHNVARNGSPRYAGLLRQIASKSAILQDFDQQLFWRTFTGGVLHRHISVKSEPEKTDVWRFSSQFDFPHINENGELSRTVLMFEGVAESNFKDIANHSSECFSYRCYAAPLDANAKK | soluble |
| MESTLSLQANLYPRLTPAGAFYAVSSDAPSAGKTLLHSLLKADADEMVSSEKLLTWADTADIDTALNLLYRLQKLEFLYGDENGHSDGINLSDEQLPLLMEQLSGSGKALLVDRNGLYLANANFHHEAAEELGLLAAEVAQMEKKYRLLIKNNLYINNNAWGVCDPSGQSELTFFPLYIGSTKFILVIGGIPDLGKEAFVTLVRILYRRYSNRV | not soluble |
| MSLTTDWTTQVAAAAASVTAAEVDTARRALDYLCLAQLYLRDNVTLSTPLQPGHVKPAPAGHWGVCPPVNAVLAALGPYRRMPGTDVRVVHGGGHAGPSALAHAWITGALDTGEDAFGHTEVDLARLCAQFPRTRFGGEITPLIPGHDHLGGQLGPALAIAHGMGLDAPDRLVVAVIGDGECETGATAAAWLGARALIGTGTHGRVLPVILANGLRMGSASLLAALDPCDLARHLGGLGYEVITAGPSTDEITAAVARALTGLRPLQYGPSTVVVVTVDKGHGVPKTVAGQQIAQTPRVHKVPLRNPRDDNAEFVALERWLSGYRPQELFTGGAPTATVRRALAPAATGRVELHAPRGCIAAASAVADRVAGADFGAAITATLRELNTVYGLRVFSPDELASNRIELGAPDSGWTIEVLNEELCHAWAQGYQATGRRGVVVGYEAFAPITASLLAQQLLAHRLAAAAGRPPGPSLVYLLTSLGWHNTITHANPGLIDIAIGTADPSVHIYLPADATRTAAALTFAVRKLGRASLVVASKHPMPAHPHTTIDAELRDGYAVWPHIADDLDPEMVLVSIGDIAARELTRAATTITATRTATRLRYLHIHDLTSLGAPGRRDAAISAADFERLFPPGAAVLIATTCHPAAVHALLGERGAPRTVVVRGWANPPLPMSHDELLDHTGIAATALHEAALALLDSTTCDPLIRQGAREGHHHHHH | soluble |
| MYRQGTNQSVCSDADEFTPEELQEFAQAFKLFDKDGNNTMNIKELGEAMRMLGLNPTEEELLNMVNEYDVDGNGKIDFGEFCKMMKEMNKETDQELIRLAFKVFDKDGNGYITAQEFKHFMTTMGERFSEEEVDEIIREVDKDGDEQIDLDEFVNMVAPIVSDGTKTDPFLEPTASTNPPTK | not soluble |
| MADVADPEVESRPQRFPKNIMITGANRGIGFGLVKHFLEYDGIELLIATCRNPEKADELNALKNDRRLHVIALNVDDDESIKKVFDEVSSLVSSNGLNMLINNAGILLPYEVDGPKICRKTMMKQLETNSVSVAILTQIFLPLIKTAASAAEGDEASIDRASIINISSTMASIEMNNGCFDGPMTAYRMSKSALNAFARQSFMELSKYHILVTSFCPGWVRTDMGGDNADLDVNESTKTLSANILRLDNRNNGLYFDRFLHPIPN | not soluble |
| MHHHHHHSSGVDLGTENLYFQSMGKVKATPMTPEQAMKQYMQKLTAFEHHEIFSYPEIYFLGLNAKKRQGMTGGPNNGGYDDDQGSYVQVPHDHVAYRYEVLKVIGKGSFGQVVKAYDHKVHQHVALKMVRNEKRFHRQAAEEIRILEHLRKQDKDNTMNVIHMLENFTFRNHICMTFELLSMNLYELIKKNKFQGFSLPLVRKFAHSILQCLDALHKNRIIHCDLKPENILLKQQGRSGIKVIDFGSSCYEHQRVYTYIQSRFYRAPEVILGARYGMPIDMWSLGCILAELLTGYPLLPGEDEGDQLACMIELLGMPSQKLLDASKRAKNFVSSKGYPRYCTVTTLSDGSVVLNGGRSRRGKLRGPPESREWGNALKGCDDPLFLDFLKQCLEWDPAVRMTPGQALRHPWLRRRLPKPPTGEKTSVKR | soluble |
| MDPNFHNTGPSGSAPRKPETWRSCKEANKVIEMFYSEGNFYHDIYMEELANLAETSHKNVRDTLSRLRKKDERAGKYVPPPPKQMYEFTSEQRGALDQAFLVTPQMDSDGARELSEITGLTVKQINNWFCNQRRKADGRSAEKDKKRRERIREDMKKNGLGRVGTFRSEAVELFEKEYETMLQLEAIGGGKVRIPYTELVEKTGMERKKIRDWFSKRKGRDKRFLENMENTREVSPQNTQQNIQDILIKIVTQKEESALQRHAPEMRDAGQRDGFCLFGFFLRD | not soluble |
| SMSTKGTILVTGGAGYIGSHTAVELLAHGYDVVIADNLVNSKREAIARIEKITGKTPAFHETDVSDERALARIFDAHPITAAIHFAALKAVGESVAKPIEYYRNNLDSLLSLLRVMRERAVKRIVFSSSATVYGVPERSPIDETFPLSATNPYGQTKLMAEQILRDVEAADPSWRVATLRYFNPVGAHESGLIGEDPAGIPNNLMPYVAQVAVGKLEKLRVFGSDYPTPDGTGVRDYIHVVDLARGHIAALDALERRDASLTVNLGTGRGYSVLEVVRAFEKASGRAVPYELVARRPGDVAECYANPAAAAETIGWKAERDLERMCADHWRWQENNPRGFV | soluble |
| MAHHHHHHMKIVPPNFGYVEERIFRCGAPEPCHYAFLASLKLRTCVLLTESHDEAFVRWLRENNVHTVCPLYDGSRMNGLGDKMGCVGYHTGSMTLSEPVVVDILHVLVDPINYPLLLTCSVGRYRTGIVCGCLRKLQGWSLVSILEEYRRYAQDKGRAENEEFIELFDKDLVNLELKDGRRPTILYPYDV | soluble |
